# Laboratory results taken from patent US20160346402A1 (Bayer, published 2016).
# Positions count from the first letter of the chain named.
# T1: TPP-1984, hTNFRSF12 amino acids 28-68-CT-His (human)
# T1 construct: Monomeric ectodomain with C-terminal deletion of amino acids 69 to 80; also called TTP-1984; TWEAKR (28-68)-HIS
# T1 chain: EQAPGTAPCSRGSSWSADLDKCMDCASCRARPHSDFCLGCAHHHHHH
# B1: P3G5(TPP-2195) (antibody, mouse IgG2a, kappa, V domains shown)
# VH: QVQLQQSGPEVVRPGVSVKISCKGSGYTFTDYGIHWVKQSHAKSLEWIGVISTYNGYTNYNQKFKGKATMTVDKSSSTAYMELARLTSEDSAIYYCARAYYGNLYYAMDYWGQGTSVTVSS
# VL: DIVLTQSPASLAVSLGQRATISCRANKSVSTSSYSYMHWYQQKPGQPPKLLIKYASNLESGVPARFSGSGSGTDFILNIHPVEEEDAATYYCQHSRELPFTFGSGTKLEIKR
# notes: Comparative antibody; murine IgG2a
# B2: TPP-2090 (antibody, human IgG1, kappa, V domains shown)
# VH: EVQLLESGGGLVQPGGSLRLSCAASGFTFSPYPMIWVRQAPGKGLEWVSYISPSGGSTHYADSVKGRFTISRDNSKNTLYLQMNSLRAEDTAVYYCARGGDTYFDYFDYWGQGTLVTVSS
# VL: DIQMTQSPSSLSASVGDRVTITCRASQSISGYLNWYQQKPGKAPKLLIYQASSLQSGVPSRFSGSGSGTDFTLTISSLQPEDFATYYCQQSYTSPFITFGQGTKVEIKR
# notes: Human IgG1; biotinylated (biotin-LC-NHS) when used as soluble partner in the ELISAs; also called anti-TWEAKR AK-1
# B3: TPP-2084 (antibody, human IgG1, kappa, V domains shown)
# VH: B2 VH with I35M
# VL: not shown
# notes: Human IgG1; biotinylated when used as soluble partner in the ELISAs
# B4: 136.1(TPP-2194) (antibody, mouse IgG2a, kappa, V domains shown)
# VH: EVKLEESGGGLVQPGGSMKLSCVASGFTFNNYWMSWVRQSPEKGLEWLAEIRLKSDNYATHYAESVKGKFTISRDDSKSRLYLQMNNLRAENTGIYYCTGGFADYFDYWGQGTTLTVSS
# VL: DIVLTQSPASLTVSLGQRATISCRASQSVSTSSYSYMQWYQQRPGQPPKLLIKYATNLDSGVPARFSGSGSGTDFTLNIHPVEEEDAATYYCQHSWEIPYTFGGGTKLEIKR
# notes: as for B1
# B5: PDL-192(TPP-1104) (antibody, human IgG1, kappa, V domains shown)
# VH: QVELVESGGGLVQPGGSLRLSCAASGFTFSSYWMSWVRQAPGKGLEWVAEIRLKSDNYATHYAESVKGRFTISRDDSKNSLYLQMNSLRAEDTAVYYCTGYYADAMDYWGQGTLVTVSS
# VL: DIQMTQSPSSLSASVGDRVTITCRASQSVSTSSYSYMHWYQQKPGKAPKLLIKYASNLESGVPSRFSGSGSGTDFTLTISSLQPEDFATYYCQHSWEIPYTFGGGTKVEIKR
# notes: Comparative antibody; variable domains from WO2009/020933 with human IgG1 constant region added
# B6: P3G5(TPP-2195) (antibody, mouse IgG2a, kappa, V domains shown)
# VH: B1 VH
# VL: B1 VL
# notes: murine IgG2a; variable domains from WO2009/140177 with a murine IgG2 constant region added; biotinylated IgG in the ELISA
# B7: P4A8(TPP-1324) (antibody, human IgG1, kappa, V domains shown)
# VH: QVQLVQSGAEVKKPGASVKVSCKGSGYTFTDYGMHWVRQAPGQGLEWMGVISTYNGYTNYNQKFKGRVTMTVDKSTSTAYMELRSLRSDDTAVYYCARAYYGNLYYAMDYWGQGTLVTVSS
# VL: B1 VL with N26S, I76S, V82M, E85D, A87T, T89M, Y91F, S104G
# notes: human IgG1; variable domains from WO2009/140177 with a human IgG1 constant region added; biotinylated IgG in the ELISA
# B8: TPP-2084 (antibody, V domains shown)
# VH: B2 VH with I35M
# VL: not shown
# notes: human IgG1
# B9: TPP-2090 (antibody, V domains shown)
# VH: B2 VH
# VL: B2 VL
# notes: human IgG1; also called anti-TWEAKR AK-1
# Biological target: T2, TPP-2203, TWEAKR-ECD-34-68-hIgGFc-His (human)
# T2 construct: also called TWEAKR (34-68)-Fc fusion protein; N- and C-terminally truncated ectodomain
# Assay: ELISA: TPP-2203 (TWEAKR 34-68-Fc) coated at 1 µg/ml; biotinylated IgG at 0.08 µg/ml (open bars) and 0.3 µg/ml (solid bars); streptavidin-HRP, Amplex Red; Y = signal [Rfu]
# Protocol: FIG. 4: Interaction of the cysteine-rich domain of TWEAKR with antibodies according to the invention and reference antibodies. What is shown is the result of an ELISA with TWEAKR (34-68)-Fc fusion protein coating (TPP-2203, 1 μg/ml) and 0.08 μg/ml (open bars) and 0.3 μ/ml (solid bars) of biotinylated IgG as soluble binding partner. Detection was carried out using streptavidin-HRP and Amplex Red substrate.
# (§1) Detection was carried out using streptavidin-HRP and Amplex Red substrate. IgGs were biotinylated using an about 2-fold molar excess of biotin-LC-NHS (Pierce; Cat. No. 21347) according to the instructions of the manufacturer and desalted using Zeba desalting columns (Pierce; Cat. No. 89889).
row,binding result,Binder
1,binds,B1
2,binds,B2
3,binds,B3
4,binds,B4

# Biological target: T3, TPP-2614, TweakR-ECD-34-68-hIgGFc-His-D47A (human)
# T3 construct: also called D47A mutein
# Assay: ELISA: IgG coated at 1 µg/ml; 8-fold diluted HEK293 supernatant with the TWEAKR(34-68)-Fc-His mutein added; anti-HIS-HRP, Amplex Red; signal [Rfu]
# Protocol: These TWEAKR(34-68) Fc muteins were expressed in HEK293 cells. To obtain dose-reaction data, IgGs were coated at a concentration of 1 μg/ml onto a 384-well Maxisorp ELISA plate, and a serial 2-fold dilution of the supernatant comprising the TWEAKR mutein was used as soluble binding partner. Detection was carried out using anti-HIS-HRP and Amplex Red.
row,binding result,Binder
1,binds,B5

# Biological target: T1, TPP-1984, hTNFRSF12 amino acids …
# Assay: ELISA: TPP-1984 (TWEAKR 28-68-HIS) coated at 1 µg/ml; biotinylated IgG at 0.08 µg/ml (open bars) and 0.3 µg/ml (solid bars); streptavidin-HRP, Amplex Red; Y = signal [Rfu]
# Protocol: FIG. 5: Interaction of TWEAKR (28-68) with antibodies according to the invention and reference antibodies. What is shown is the result of an ELISA with TWEAKR (28-68)-HIS coating (TTP-1984, 1 μg/ml) and 0.08 μg/ml (open bars) and 0.3 μ/ml (solid bars) of biotinylated IgG as soluble binding partner. Detection was carried out using streptavidin-HRP and Amplex Red substrate.
# as §1
row,binding result,Binder
1,binds,B2
2,binds,B3
3,binds,B4

# Biological target: T4, hTNFRSF12 amino acids a28-80-hIgG1-Fc (human)
# T4 construct: wild-type TWEAKR-Fc (dimeric Fc fusion), coated on the ELISA plate; also called TPP-599; HUMAN-TNFRSF12Aaa28-80-hIgG1-Fc
# Assay: ELISA: TWEAKR-Fc construct coated at 62 ng/ml, biotinylated IgG titrated from 100 nM; token + marks IC50 of 1 to […] pM
# Protocol: (§2) To obtain dose-reaction data, the different TWEAKR-Fc muteins were coated at a low concentration (62 ng/ml) onto a 384-well Maxisorb ELISA plate, and a serial 2-fold dilution of biotinylated IgG beginning with a concentration of 100 nM was used as a soluble binding partner. Detection was carried out using streptavidin-HRP and Amplex Red.
# (§3) IgGs were biotinylated using an about 2-fold molar excess of biotin-LC-NHS (Pierce; Cat. No. 21347) according to the instructions of the manufacturer and desalted using Zeba desalting columns (Pierce; Cat. No. 89889).
row,binding result,Binder
1,binds,B6
2,binds,B7
3,binds,B8
4,binds,B9

# Biological target: T5, hTNFRSF12 amino acids a28-80-R56P-hIgG1-Fc (human)
# T5 construct: TWEAKR-Fc mutein, coated on the ELISA plate; also called TPP-2683
# Assay: as above
# Protocol: as §2, §3
row,binding result,Binder
1,binds,B6
2,binds,B8
3,binds,B9

# Biological target: T6, hTNFRSF12 amino acids a28-80-S40R-hIgG1-Fc (human)
# T6 construct: TWEAKR-Fc mutein, coated on the ELISA plate; also called TPP-1987
# Assay: as above
# Protocol: as §2, §3
row,binding result,Binder
1,binds,B6
2,binds,B7
3,binds,B8
4,binds,B9

# Biological target: T7, hTNFRSF12 amino acids a28-80-T33Q-hIgG1-Fc (human)
# T7 construct: TWEAKR-Fc mutein, coated on the ELISA plate; also called TPP-1986
# Assay: as above
# Protocol: as §2, §3
row,binding result,Binder
1,binds,B6
2,binds,B7
3,binds,B8
4,binds,B9

# Biological target: T8, hTNFRSF12 amino acids a28-80-L65Q-hIgG1-Fc (human)
# T8 construct: TWEAKR-Fc mutein, coated on the ELISA plate
# Assay: as above
# Protocol: as §2, §3
row,binding result,Binder
1,binds,B6
2,binds,B7
3,binds,B8
4,binds,B9

# Biological target: T9, hTNFRSF12 amino acids a28-80-M50A-hIgG1-Fc (human)
# T9 construct: TWEAKR-Fc mutein, coated on the ELISA plate; also called TPP-1988
# Assay: as above
# Protocol: as §2, §3
row,binding result,Binder
1,binds,B6
2,binds,B7
3,binds,B8
4,binds,B9

# Biological target: T10, hTNFRSF12 amino acids a28-80-H60K-hIgG1-Fc (human)
# T10 construct: TWEAKR-Fc mutein, coated on the ELISA plate; also called TPP-1989
# Assay: as above
# Protocol: as §2, §3
row,binding result,Binder
1,binds,B6
2,binds,B7
3,binds,B8
4,binds,B9

# Biological target: T11, TPP-2202, TWEAKR-ECD-28-80-hIgGFc-His (human)
# T11 construct: also called TWEAKR-Fc fusion protein; full-length ectodomain Fc fusion
# Assay: ELISA: TPP-2202 (TWEAKR 28-80-Fc) coated at 1 µg/ml; biotinylated IgG at 0.08 µg/ml (open bars) and 0.3 µg/ml (solid bars; legend of FIG. 3 prints 0.03); streptavidin-HRP, Amplex Red; Y = signal [Rfu]
# Protocol: FIG. 3: Interaction of the TWEAKR ectodomain with antibodies and reference antibodies. […] Detection was carried out using streptavidin-HRP and Amplex Red substrate.
# as §1
row,binding result,Binder
1,binds,B1
2,binds,B2
3,binds,B3
4,binds,B4
